Test results: patent US9598483B2, “Monoclonal antibody binding specifically to DLL4 and use thereof” (ABLBIO, priority 2012, dated 2017)
Residue numbers refer to the chain shown, from its start. Entries after “also recorded” stand apart in the source; their conditions may differ. Each block holds one molecule with its values, some of them ahead of it.

Key:
[1] = target: T1, human DLL4-His bound to plate-coated Notch 1-Fc (Homo sapiens, UniProt Q9NR61); experiment: ELISA-based solution competition (neutralization) test, DLL4 binding to hNotch-1-hFc; conditions: antibody concentration of 0.1 μM
T1 construct: The DLL4 antigen protein comprises 27th to 522nd amino acid residues of DLL4; purchased R&D System 1506-D4/CF
Method: The neutralization effects of the anti-DLL4 antibodies were evaluated using an ELISA-based solution competition test.
Each well of a 96-well microtiter plate (Nunc-Immuno Plate, NUNC, Rochester, N.Y.) was coated with 100 μl of 500 ng/ml of hNotch-1-hFc protein (R&D Systems) (diluted in PBS) at 4° C. overnight, and non-specific binding sites were blocked with BSA for 2 hours.
The anti-DLL4 antibody (purified protein) on the 96-well microtiter plate was premixed with serial dilutions of antigen protein (DLL4 antigen, 600 ng/m) at an antibody concentration ranging from 0 nM to 140 nM. The antigen/antibody mixture was incubated for 30 minutes, and then transferred to a microtiter plate precoated with the DLL4 receptor hNotch-1 protein (50 ng/well) in order to measure free […]. Then, the plate was incubated for 2 hours and washed five times with 0.05% tween 20-containing PBS. In order to detect the DLL4 antigen bound to the plate, an HRP-conjugated His […] polyclonal antibody reagent (Roche applied science) was diluted at a ratio of 1:500, and the washed microtiter plate was treated with the diluted antibody reagent, and then allowed to react at 37° C. for 1 hour. Then, color development was performed using a colorimetric substrate (3,3′,5,5′-tetramethylbenzidine; Sigma-Aldrich Co.), and the enzymatic reaction was stopped using 0.5 mol/l of sulfuric acid. The amounts of antibodies required to achieve a 50% decrease in human DLL4-His bound to plate-coated Notch 1-Fc (IC50) are shown in Table 1 below.

[2] = system: DLL4/Notch signaling pathway; experiment: Western blotting of NICD in HUVECs on rhDLL4-coated plate (DLL4/Notch signaling pathway); assay type: cell-based, human; conditions: 20 μg/ml MLCK-2 mAb
Excerpt: In Notch signaling, when DLL4 binds to a Notch receptor, this causes a […] change in the Notch receptor leading to the cleavage thereof, and then an intracellular domain of Notch (NICD) enters the nucleus and mediates a Notch signaling. In this regard, it was confirmed whether the anti-DLL4 antibody of the present invention could inhibit the binding between DLL4 and a Notch receptor, thereby disrupting the Notch signaling through monitoring the inhibition of a Notch receptor cleavage as below.
To be specific, in order to determine the inhibitory activity of the DLL4-binding antibodies against the DLL4/Notch signaling pathway, the inhibition of signaling pathway in HUVECs was analyzed in the present experiment. One day before conducting experiment, a recombinant human DLL4 (rhDLL4, R&D systems) was diluted with carbonate buffer to a final concentration of 1 μg/ml, and then 1 ml/well of the diluted rhDLL4 was added to a 6-well plate (BD) and incubated at 4° C. overnight. […]
Subsequently, the plate was put on ice and HUVECs were collected from each well using a scraper and put into a 1.5 ml tube and stored in ice. […] For SDS-PAGE analysis, the supernatant was added to 5×SDS sample buffer and boiled at 100° c. for 10 minutes analyzed by SDS-PAGE. […]

[3] = system: human umbilical vein endothelial cell (HUVEC); experiment: HUVEC proliferation assay on rhDLL4-coated plate (CCK-8); assay type: cell-based; conditions: rhDLL4-coated plate 1 μg/ml; MLCK-2 mAb 20 μg/ml; 96 hours
Method: In order to investigate the effect of DLL4-binding antibodies on proliferation of human umbilical vein endothelial cell (HUVEC), a representative anti-DLL4 antibody, MLCK-2 antibody, was analyzed for the effect thereof on proliferation of HUVEC.
To be specific, human umbilical vein endothelial cell (HUVEC) was purchased from Lonza to be used in this experiment. T-flask (Nunc) was coated with PBS buffer (Gibco) added with 1% gelatin (Sigma) at a room temperature for 4 to 6 hours, washed with PBS, and then it was used for culturing HUVECs. EBM-2 (Lonza) supplemented with EGM-2 Single Quot (Lonza) was used as a culture medium, density of a cell culture was remained below 80%, and the cells were cultured at 37° C. in a 5% CO2 incubator. The cells before passage 6 were used for this experiment. HUVEC proliferation assay was done by following process. First, to prepare the hDLL4-coated plate, one day before conducting the experiment, rhDLL4 (R&D systems) was diluted in a carbonate buffer to a final concentration of 1 μg/ml in a 96-well plate (BD), where 100 μl of the diluted rhDLL4 was inoculated per each well, and the plate was incubated at 4° C. overnight. […] Using the apparatus SpectraMax 190 (Molecular Devices), the absorption of the sample at 450 nm-650 nm was measured and the levels of cell proliferation were compared among different test groups.

T1 sequence (Q9NR61 27-522): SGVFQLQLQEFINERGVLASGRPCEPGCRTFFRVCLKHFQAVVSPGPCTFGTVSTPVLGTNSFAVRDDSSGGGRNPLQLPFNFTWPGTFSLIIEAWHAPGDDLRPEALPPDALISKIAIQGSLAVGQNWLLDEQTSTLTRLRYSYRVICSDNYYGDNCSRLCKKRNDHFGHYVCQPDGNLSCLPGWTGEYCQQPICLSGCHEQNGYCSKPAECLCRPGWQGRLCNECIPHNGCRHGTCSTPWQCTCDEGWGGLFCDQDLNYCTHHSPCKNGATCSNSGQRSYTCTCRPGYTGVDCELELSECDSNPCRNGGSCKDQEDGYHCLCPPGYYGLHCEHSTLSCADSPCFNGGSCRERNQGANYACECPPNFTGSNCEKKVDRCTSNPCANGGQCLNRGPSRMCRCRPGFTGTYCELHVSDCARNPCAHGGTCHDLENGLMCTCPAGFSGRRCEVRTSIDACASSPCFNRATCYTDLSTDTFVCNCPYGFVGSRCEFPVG

blocking of the bindings between DLL4 and human Notch 1 receptor [1]: blocked most of the bindings
B1: MLCK-2: human monoclonal anti-DLL4 antibody; heavy chain variable region SEQ ID NO: 5, light chain variable region SEQ ID NO: 19 (antibody, V domains shown)
VH: EVQLLESGGGLVQPGGSLRLSCAASGFTFSDYAMSWVRQAPGKGLEWVSWIYSGSGNKYYADSVKGRFTISRDNSKNTLYLQMNSLRAEDTAVYYCARADWPFDYWGQGTLVTVSS
VL: QSVLTQPPSASGTPGQRVTISCTGSSSNIGSNDVTWYQQLPGTAPKLLIYADSKRPSGVPDRFSGSKSGTSASLAISGLRSEDEADYYCGTWDYSLSAYVFGGGTKLTVL
modifications: a heavy chain variable region of MLCK-2; a light chain variable region of MLCK-2
level of NICD / Notch signaling (western blotting) [2]: reduced the level of NICD; also recorded: inhibits Notch signaling | effect on DLL4-mediated inhibition of HUVEC proliferation [3]: blocks the DLL4-mediated suppression of HUVEC proliferation

blocking of the bindings between DLL4 and human Notch 1 receptor [1]: blocked most of the bindings
B3: MLCK-4: human monoclonal anti-DLL4 antibody; heavy chain variable region SEQ ID NO: 11, light chain variable region SEQ ID NO: 27 (antibody, V domains shown)
VH: EVQLLESGGGLVQPGGSLRLSCAASGFTFSNYAMSWVRQAPGKGLEWVSWIYHGGGDTYYADSVKGRFTISRDNSKNTLYLQMNSLRAEDTAVYYCARGPNYTFGKPFDYWGQGTLVTVSS
VL: B1 VL with T23R, S26P, S31N, D33T, T35Y, A51S, K54Q, T91S
modifications: a heavy chain variable region of MLCK-4; a light chain variable region of MLCK-4

Further lines, the molecule ahead of its results:

B2: MLCK-1: human monoclonal anti-DLL4 antibody; heavy chain variable region SEQ ID NO: 1, light chain variable region SEQ ID NO: 15 (antibody, V domains shown)
VH: B1 VH with G54D, S55D, W101P
VL: B1 VL with D33N, T35S, A51S, S53N, K54N, G90A, Y94S, S97N, A98G
modifications: a heavy chain variable region of MLCK-1; a light chain variable region of MLCK-1
blocking of the bindings between DLL4 and human Notch 1 receptor [1]: blocked most of the bindings

B4: MLCK-3: human monoclonal anti-DLL4 antibody; heavy chain variable region SEQ ID NO: 8, light chain variable region SEQ ID NO: 23 (antibody, V domains shown)
VH: B1 VH with S53Y, G54D, N57S, W101L
VL: B1 VL with T23S, S31N, D33A, A51S, S53N, K54H, Y94A, A98G
modifications: a heavy chain variable region of MLCK-3; a light chain variable region of MLCK-3
blocking of the bindings between DLL4 and human Notch 1 receptor [1]: blocked most of the bindings
